The values below come from patent publication US20180251562A1 (XOMA US, published 2018).

Assay [1] has as its target T1, rat insulin receptor (INSR) on CHOK1 cells (rat, UniProt P15127 27-1383). The experiment in a line: cell-based or functional assay.
Assay [2] deals with T2, cynomolgus insulin receptor (INSR) on CHOK1 cells (cyno, UniProt A0A7N9D6H3 48-1390). The experiment in a line: cell-based or functional assay.
For assay [3], the target named is T3, minipig insulin receptor (INSR) on CHOK1 cells (minipig, UniProt F1SCL0 28-758; F1SCL0 763-1382). The assay can be described thus: cell-based or functional assay.
Assay [4] has as its target T4, human insulin receptor (INSR) on CHOK1 cells (human, UniProt P06213 28-1382). The experiment in a line: cell-based or functional assay.
For assay [5], the target named is T5, solubilized human INSR (B isoform) from CHO-hINSR-B cells, without insulin (human, UniProt P06213 28-1382).
T5 construct: mature; Detergent-solubilized full-length receptor in cell lysate, captured on the SPR chip by its carboxy-terminal part; also called solubilized INSR
The assay can be described thus: SPR (ProteOn XPR36), solubilized INSR-B captured by CT-3 mAb, Fab injected, -insulin.

Assay [6] concerns the target T1, rat insulin receptor (INSR) on CHOK1 …. The experiment in a line: flow cytometry on CHOK1 cells expressing the INSR ortholog; Fab, anti-human kappa FITC detection. On the technique in general: Flow cytometry measures light scatter and fluorescence of single cells or particles in a stream.
The target in assay [7] is T2, cynomolgus insulin receptor (INSR) on …. The description is as above.
Assay [8] deals with T3, minipig insulin receptor (INSR) on …. The description is as above.
For assay [9], the target named is T4, human insulin receptor (INSR) on CHOK1 …. The description is as above.
Assay [10] addresses T6, Recombinant human insulin receptor (B form) ECD (R&D Systems) (human, UniProt P06213 28-956, limits assumed).
T6 construct: extracellular domain; also called INSR-ECD; h-INSR
The assay can be described thus: SPR (Biacore 2000), INSR-ECD immobilised; relative to 247.2.018 Fab. (In general: In SPR one partner is held on a chip, and binding of the other changes the refractive index at the surface.)

Assay [11] has as its target T6, Recombinant human insulin receptor (B …). The assay can be described thus: SPR (Biacore 2000), INSR-ECD immobilised, purified Fab injected, 1:1 fit.
Assay [12] shares this target. The assay can be described thus: SPR (Biacore 2000), INSR-ECD immobilised, purified Fab injected, 1:1 fit [cont'd].
The target in assay [13] is T4, human insulin receptor (INSR) on CHOK1 …. The experiment in a line: binding to CHO cells expressing human INSR; 1st column headed CHO Human INSR; quantity and unit not printed [cont'd].
Assay [14] has as its target T1, rat insulin receptor (INSR) on CHOK1 …. The experiment in a line: binding to CHO cells expressing rat INSR; 1st column headed CHO Rat INSR; quantity and unit not printed [cont'd].
Assay [15] concerns the target T2, cynomolgus insulin receptor (INSR) on …. The assay can be described thus: binding to CHO cells expressing cyno INSR; 1st column headed CHO Cyno INSR; quantity and unit not printed [cont'd].
The target of assay [16] is T4, human insulin receptor (INSR) on CHOK1 …. The assay can be described thus: binding to CHO cells expressing human INSR; 2nd column headed CHO Human INSR; quantity and unit not printed [cont'd].
The target of assay [17] is T2, cynomolgus insulin receptor (INSR) on …. The experiment in a line: binding to CHO cells expressing cyno INSR; 2nd column headed CHO Cyno INSR (same numbers as the 1st); quantity and unit not printed [cont'd].
Assay [18] deals with T1, rat insulin receptor (INSR) on CHOK1 …. The assay can be described thus: binding to CHO cells expressing rat INSR; 2nd column headed CHO Rat INSR (the 1st column's numbers with more digits); quantity and unit not printed [cont'd].

B1: XPA.15.247 Fab (Fab, V domains shown)
VH: EVQLVETGGGVVQPGRSLRLSCAASGFTFSSYAMHWVRQAPGKGLEWVAVISYDGSNKYYADSVKGRFTISRDNSKNTLYLQMNSLRAEDTAVYYCARHEWGFGMDVWGQGTTVTVSS
VL: DVVMTQSPLSLSVTLGQPASISCRSSLSLVYGDENTYLNWFQQRPGQSPRRLLYKVSDRDSGVPDRFSGSGSGTDFTLKISRVEADDVGVYYCMQGTHWPYTFGQGTKLEIKR
notes: Monomeric Fab; also called Fab247; XPA.15.247 parent Fab
Broadly, the Kd is the concentration at which binding is half-saturated. As usually defined, the koff is the rate constant with which the complex falls apart. In general, kon refers to a measure of how fast the partners come together. What is called EC50 is the concentration needed to bring the measured effect to its halfway point. Consider B1, for which the “EC50 (nM), pAKT signaling assay” value was 46.6 nM in assay [1], 82.4 nM in [2], 20.7 nM in [3] and 44 nM in assay [4]. Also, the Kd in assay [5] was 56 nM. The koff in [5] worked out at 0.00211 s⁻¹. The kon in assay [5] was determined as 37400 M⁻¹ s⁻¹. The EC50 in assay [6] was 11.8 nM; in assay [7], 93 nM; in [8] it was 39.8 nM; in [9] it was 34.8 nM.

B2: RHF.15.05896.032 (Fab, V domains shown)
VH: EVQLVETGGGVVQPGRSLRLSCAASGFKFSSYAMHWVRQAPGKGLEWVAVISYSGENKYYADSVKGRFTISRDNSKNTLYLQMNSLRAEDTAVYYCARHEWGFGFDEWGQGTTVTVSS
VL: DVVMTQSPLSLPVTLGQPASISCRSSQSLVYGDGNTYLNWFQQRPGQSPRRLIYKVSNRDSGVPDRFSGSGSGTEFTLKISRVEAEDVGVYFCMQGTYWPGTFGGGTKLEIKR
notes: Untagged Fab
As to B2, the “Fold KD Improvement” value in assay [10] was found to be 8.6 fold. Also, in assay [11], the Kd came out at 1.1 nM. In [12], the koff was 0.0001 s⁻¹ and the on-rate constant (kon) turned out to be 91000 M⁻¹ s⁻¹. For the same molecule, the “CHO Human INSR” value in [13] is 3.1.

B3: RHF.15.05896.015 (Fab, V domains shown)
VH: EVQLVETGGGVVQPGRSLRLSCAASGFKFSSYAMHWVRQAPGKGLEWVAVISYSGRNKYYADSVKGRFTISRDNSKNTLYLQMNSLRAEDTAVYYCARHEWGFGQDYWGQGTTVTVSS
VL: DVVMTQSPLSLPVTLGQPASISCRSSQSLVYGDGNTYLNWFQQRPGQSPRRLIYKVSNRDSGVPDRFSGSGSGTEFTLKISRVEAEDVGVYFCMQGTYWPGTFGGGTKLEIKR
notes: Untagged Fab
With B3, the “Fold KD Improvement” value in assay [10] is 3.3 fold. The Kd in [11] was 3 nM. Also, in assay [12], the koff came out at 0.00025 s⁻¹ and the on-rate (kon) is 84000 M⁻¹ s⁻¹. For the same molecule, the “CHO Human INSR” value in assay [13] was 4.35.

B4: RHF.15.05896.044 (Fab, V domains shown)
VH: EVQLVETGGGVVQPGRSLRLSCAASGFKFSSYAMHWVRQAPGKGLEWVAVISNSGSNKYYADSVKGRFTISRDNSKNTLYLQMNSLRAEDTAVYYCARHEWGFGFDKWGQGTTVTVSS
VL: DVVMTQSPLSLPVTLGQPASISCRSSQSLVYGDGNTYLNWFQQRPGQSPRRLIYKVSNRDSGVPDRFSGSGSGTEFTLKISRVEAEDVGVYFCMQGTYWPGTFGGGTKLEIKR
notes: Untagged Fab
For B4, the “Fold KD Improvement” value in assay [10] was determined as 7.4 fold. Further, the Kd in assay [11] stood at 1.3 nM. In [12], the koff worked out at 0.00017 s⁻¹ and the kon was 130000 M⁻¹ s⁻¹. In [13], the “CHO Human INSR” value is 2.52.

B5: RHF.15.05896.006 (Fab, V domains shown)
VH: EVQLVETGGGVVQPGRSLRLSCAASGFKFSSYAMHWVRQAPGKGLEWVAVISYSGDNKYYADSVKGRFTISRDNSKNTLYLQMNSLRAEDTAVYYCARHEWGFGFDRWGQGTTVTVSS
VL: DVVMTQSPLSLPVTLGQPASISCRSSQSLVYGDGNTYLNWFQQRPGQSPRRLIYKVSNRDSGVPDRFSGSGSGTEFTLKISRVEAEDVGVYFCMQGTYWPGTFGGGTKLEIKR
notes: Untagged Fab
In the case of B5, the “Fold KD Improvement” value in [10] stood at 5.2 fold. Further, in [11], the Kd is 1.9 nM. Also, in assay [12], the koff was determined as 0.00024 s⁻¹ and the kon was determined as 130000 M⁻¹ s⁻¹. Besides, the “CHO Human INSR” value in assay [13] is 2.95.

B6: RHF.15.05896.056 (Fab, V domains shown)
VH: EVQLVETGGGVVQPGRSLRLSCAASGFKFSSYAMHWVRQAPGKGLEWVAVISYGGSNKYYADSVKGRFTISRDNSKNTLYLQMNSLRAEDTAVYYCARHEWGFGFDEWGQGTTVTVSS
VL: DVVMTQSPLSLPVTLGQPASISCRSSQSLVYGDGNTYLNWFQQRPGQSPRRLIYKVSNRDSGVPDRFSGSGSGTEFTLKISRVEAEDVGVYFCMQGTYWPGTFGGGTKLEIKR
notes: Untagged Fab
Take B6: in assay [10], the “Fold KD Improvement” value is 6.9 fold. For the same molecule, in assay [11], the Kd stood at 1.4 nM. In assay [12], the off-rate constant (koff) stood at 0.00017 s⁻¹ and the kon was 120000 M⁻¹ s⁻¹. In assay [13], the “CHO Human INSR” value came out at 2.26.

B7: RHF.15.05896.036 (Fab, V domains shown)
VH: EVQLVETGGGVVQPGRSLRLSCAASGFKFSSYAMHWVRQAPGKGLEWVAVISYSGGNKYYADSVKGRFTISRDNSKNTLYLQMNSLRAEDTAVYYCARHEWGFGFDLWGQGTTVTVSS
VL: DVVMTQSPLSLPVTLGQPASISCRSSQSLVYGDGNTYLNWFQQRPGQSPRRLIYKVSNRDSGVPDRFSGSGSGTEFTLKISRVEAEDVGVYFCMQGTYWPGTFGGGTKLEIKR
notes: Untagged Fab
For B7, the “Fold KD Improvement” value in assay [10] is 5.4 fold. The Kd in assay [11] amounted to 1.8 nM. Besides, in [12], the koff was 0.00022 s⁻¹ and the kon stood at 120000 M⁻¹ s⁻¹. In addition, in assay [13], the “CHO Human INSR” value came to 3.04.

B8: RHF.15.05896.068 (Fab, V domains shown)
VH: EVQLVETGGGVVQPGRSLRLSCAASGFKFSSYAMHWVRQAPGKGLEWVAVISYSGGNKYYADSVKGRFTISRDNSKNTLYLQMNSLRAEDTAVYYCARHEWGFGYDYWGQGTTVTVSS
VL: DVVMTQSPLSLPVTLGQPASISCRSSQSLVYGDGNTYLNWFQQRPGQSPRRLIYKVSNRDSGVPDRFSGSGSGTEFTLKISRVEAEDVGVYFCMQGTYWPGTFGGGTKLEIKR
notes: Untagged Fab
Take B8: the “Fold KD Improvement” value in [10] was 8.3 fold. The Kd in assay [11] amounted to 1.2 nM. In addition, the koff in assay [12] worked out at 0.00038 s⁻¹. In addition, the kon in [12] is 320000 M⁻¹ s⁻¹. Further, the “CHO Rat INSR” value in [14] and in assay [18] was 0.533 each time. Moreover, the “CHO Cyno INSR” value in [15] and in assay [17] was 0.854 in each case. In addition, the “CHO Human INSR” value in assay [13] stood at 1.25; in [16], 0.762.

B9: RHF.15.05896.020 (Fab, V domains shown)
VH: EVQLVETGGGVVQPGRSLRLSCAASGFKFSSYAMHWVRQAPGKGLEWVAVISWSGSNKYYADSVKGRFTISRDNSKNTLYLQMNSLRAEDTAVYYCARHEWGFGFDEWGQGTTVTVSS
VL: DVVMTQSPLSLPVTLGQPASISCRSSQSLVYGDGNTYLNWFQQRPGQSPRRLIYKVSNRDSGVPDRFSGSGSGTEFTLKISRVEAEDVGVYFCMQGTYWPGTFGGGTKLEIKR
notes: Untagged Fab
On to B9, for which the “Fold KD Improvement” value in assay [10] was 6.4 fold. The Kd in assay [11] came out at 1.5 nM. In assay [12], the koff came to 0.00017 s⁻¹. In addition, the kon in assay [12] was found to be 110000 M⁻¹ s⁻¹. Besides, the “CHO Rat INSR” value in [14] was determined as 0.661; in assay [18], 0.66. The “CHO Cyno INSR” value in assay [15] and in assay [17] was 0.911 throughout. In addition, the results for the “CHO Human INSR” value in assay [13] and in assay [16] were 1.96 and 0.838, respectively.
